One protein from publication PMC5708649, “A novel Porphyromonas gingivalis enzyme: An atypical dipeptidyl peptidase III with an ARM repeat domain” (PLoS ONE, 2017) can be followed below.

Substrate in data set [1]: Cc1cc(=O)oc2cc(NC(=O)[C@H](CCCNC(=N)N)NC(=O)[C@@H](N)CCCNC(=N)N)ccc12
The experiment in a line: purified protein, by the assay type. The note with it: pH 8.0; 26.0 °C.

Substrate in data set [2]: N=C(N)NCCC[C@H](NC(=O)[C@@H](N)CCCNC(=N)N)C(=O)Nc1ccc2ccccc2c1
Put plainly: purified protein, by the assay type. As to conditions: pH 8.0; 26.0 °C.

B1: Full length PgDPP III (1–886 aa) (Porphyromonas gingivalis W83) (protein)
chain: MTKETTQHRSGERIARFADIEVLSYRADLFGTLTPKQRMLCYHLSEAALRGRDITTIQNCRYNLWVRSLMERIYTHLSKSERTDDFALLEEYLFCIWFANGIHHHYSGAKFIARFSPGFLRAALREAGVELEPEEQVLLERVLYDTDFLPKQTEQSGEEDIIKASSVNFYAPGITRAEAESHYKNLIEALPENEKSCPPSFGLNTRLIRSTSGELKDEVCCIDGLYGPAIEAVVASLEAAIPYTENEEQAACIRLLCDYYRTGDIRLYDRFCIRWVENNRTRIDFINGFTEVYADPIGIHGSWEGLVHMQDEEAGRRTRIISEHAGWFEAHSPIDARFRKKNPHGISATVVNVLTIAGDSYPATPIGINLPNADWIRAEHGSKSVTIDNITDAYNHAARGTGLYEEFIPDEEVRRHVELHADLTDSLHTDLHECLGHGSGQLLPGVPGDALGEHASTLEETRADLFALYFLADPKMIELGLLTDPDAYKANYYKYMLNGLMTQLVRIKRGEEIEEAHMRNRALIARYVLEHAERPGAMSLVCEEGKTALVIKDYEAVRAIIAGLLTEVQRIKSEGDYTAGKALVERYAVHVDPLLHEEVLTRYAKLDIAPYKGFVNPRLRPVYNSEGRLTDATIEYTEGYAEQMLRYSAEYSFLPTDSPLLQEARRLRSHLRRAMDGVLSASMREKGLHYGINFGVTREHLLRLARTADASAPLADYLWRRDVRETKILATMIFPAEELTHEQATRLLREADNVELREQLTANLLERMPEAIRSIGRWIESKETTPDMMTGVLTLAARLFTRGIFPEDVPAEKLLTLAILHLSDEEQKAELRRASALLLKRYGRGSAERTKKVLCLLPESSQDTAPVLYELCEDIRFELDFYPKDE
The term Km denotes the concentration of substrate that gives half-maximal velocity. By kcat is commonly meant the number of substrate molecules converted per active site and unit of time at saturation. A word on the kcat/Km: it is the second-order rate constant that governs catalysis at low substrate concentration. Consider B1, for which, in data set [1], the Km stood at 2.56 ± 0.32 µM, the kcat was found to be 0.29 ± 0.11 s⁻¹ and the catalytic efficiency (kcat/Km) was 113000 M⁻¹ s⁻¹. For the same protein, in data set [2], the Km worked out at 0.97 ± 0.16 µM, the kcat turned out to be 0.75 ± 0.13 s⁻¹ and the kcat/Km was determined as 773000 M⁻¹ s⁻¹.
